Test results from US20070092489A1.
Where “and” joins values, the source holds several entries; their conditions need not be identical. Equal values may be shown once.

What was measured:
[1] = target: adenovirus fiber knob as shown on Av3GFP adenoviral vector particles; experiment: cell-based or functional assay
[2] = target: adenovirus fiber knob as shown on Cy3-labeled adenoviral vector particles; experiment: depletion of Cy3-labeled adenovirus from suspension by fluorimetry; D1 tethered on Co/Cr alloy
[3] = target: adenovirus fiber knob as shown on Cy3-labeled adenoviral vector particles; experiment: depletion of Cy3-labeled adenovirus from suspension by fluorimetry; D1 tethered on stainless steel
[4] = target: adenovirus fiber knob as shown on Cy3-labeled adenoviral vector particles; experiment: depletion of Cy3-labeled adenovirus; D1-tethered against anti-knob Ab-tethered metal surfaces
[5] = target: adenovirus fiber knob as shown on Cy3-labeled adenoviral vector particles; experiment: depletion of Cy3-labeled adenovirus from suspension by fluorimetry; D1 tethered on nitinol

Substance: D1-FGF2 fusion protein (CAR D1 ligated to basic fibroblast growth factor FGF2 by intein-mediated protein ligation) (from UniProt P78310 15-140; P09038 134-288)
- concentration required to achieve maximal GFP expression (Av3GFP transduction of SKOV-3 cells) [1]: 14 nM

Substance: thiol-containing form of the D1 domain of the coxsackie-adenovirus receptor (D1-Cys), covalently immobilized on a metal surface (from UniProt P78310 15-140)
- amount of Ad bound per cm^2 of the surface [2]: 1.51e+10 Ad per cm^2
- amount of Ad bound per cm^2 of the surface [3]: 1.08e+10 Ad per cm^2
- fold greater adenovirus binding than the specific antibody (anti-knob Ab) [4]: 2 fold and 4 fold
- amount of Ad bound per cm^2 of the surface [5]: 1.16e+10 Ad per cm^2
